Source: patent publication US9567399 (dated 2017)
Substitutions are numbered along the chain they refer to.

Assays:
human PD-L1 His [1] = molecular target: human PD-L1 His (human); test: SPR, 37C
human PD-L1 His [2] = molecular target: human PD-L1 His (human); test: ELISA, competition with PD-1
cyno PD-L1 FLAG = cyno PD-L1 FLAG (cynomolgus); test: SPR, 37C
human PD-L1 His [3] = molecular target: human PD-L1 His (human); test: SPR, 25C
human PD-L1 His [4] = molecular target: human PD-L1 His (human); test: SPR, 25C; remark: listed apart in the source
human PD-L1 His [5] = molecular target: human PD-L1 His (human); test: SPR
TIGIT = molecular target: T1, TIGIT (human, UniProt Q495A1); test: SPR
T1 chain: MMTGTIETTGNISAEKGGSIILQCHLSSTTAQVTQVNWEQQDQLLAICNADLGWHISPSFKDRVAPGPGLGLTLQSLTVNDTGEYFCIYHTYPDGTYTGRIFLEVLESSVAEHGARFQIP

human PD-L1 His [6] = molecular target: human PD-L1 His (human); test: ELISA, competition with CD80
human PD-L1 His [7] = molecular target: human PD-L1 His (human); test: ELISA, competition with PD-1; remark: listed apart in the source

cyno PD-L1 FLAG (cynomolgus), sequence (chain, as listed by the source): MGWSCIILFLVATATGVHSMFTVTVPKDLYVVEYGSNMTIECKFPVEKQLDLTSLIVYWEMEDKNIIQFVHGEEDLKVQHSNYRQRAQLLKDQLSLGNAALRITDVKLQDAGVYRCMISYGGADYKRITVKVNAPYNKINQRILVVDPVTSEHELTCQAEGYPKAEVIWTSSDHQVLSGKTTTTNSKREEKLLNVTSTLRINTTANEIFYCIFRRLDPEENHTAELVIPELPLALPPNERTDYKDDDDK

B1: 84G09 (antibody, V domains shown)
VH: EVQLVESGGGLVQPGRSLRLSCAASGFTFDDYAMHWVRQTPGKGLEWVSGISWKSNIIGYADSVKGRFTISRDNAKNSLYLQMNSLRAEDTALYYCARDITGSGSYGWFDPWGQGTLVTVSS
VL: DIQMTQSPSSLSASVGDRVTITCRASQSISSYLNWYQQKPGKAPKPLIYVASSLQSGVPSSFSGSGSGTDFTLTISSLQPEDFATYYCQQSYSNPITFGQGTRLEIK
B1 showed a Kd (human PD-L1 His [1]) of 0.43 nM, an IC50 (human PD-L1 His [2]) of 7.9 nM and a Kd (cyno PD-L1 FLAG) of 0.52 nM.

B2: 1D05 VH V to A (antibody, V domains shown)
VH: EVQLVESGGGLVQPGRSLRLSCAASGFTFDDYAMHWVRQAPGKGLEWVSGISWIRTGIGYADSVKGRFTIFRDNAKNSLYLQMNSLRAEDTALYYCAKDMKGSGTYGGWFDTWGQGTLVTVSS
VL: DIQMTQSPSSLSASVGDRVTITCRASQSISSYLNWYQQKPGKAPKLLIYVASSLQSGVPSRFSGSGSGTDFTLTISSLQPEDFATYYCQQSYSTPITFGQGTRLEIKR
With B2 the Kd (human PD-L1 His [3]) was 0.33 nM.

B3: 1D05 VH F to S (antibody, V domains shown)
VH: B2 VH with A40V, F71S
VL: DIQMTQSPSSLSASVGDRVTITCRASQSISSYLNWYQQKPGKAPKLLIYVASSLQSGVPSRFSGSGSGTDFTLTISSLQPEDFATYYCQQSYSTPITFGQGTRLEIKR
With B3 the Kd (human PD-L1 His [3]) was 0.23 nM.

B4: 1D05 VH V to A, VL V to A (antibody, V domains shown)
VH: B2 VH
VL: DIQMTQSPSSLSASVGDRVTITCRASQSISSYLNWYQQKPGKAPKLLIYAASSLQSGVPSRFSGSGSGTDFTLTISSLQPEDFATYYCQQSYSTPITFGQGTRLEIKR
B4 showed a Kd (human PD-L1 His [3]) of 2.8 nM.

B5: 1D05 IC64 (D5-7) (antibody)
chain 1: B2 VH with A40V
chain 2: not shown
With B5 the Kd (human PD-L1 His [4]) was 0.214 nM.

B6: Bispecific 1, PD-L1 arm (antibody)
chain 1: B2 VH with A40V
chain 2: not shown
Work on B6 yielded a Kd (human PD-L1 His [5]) of 0.27 nM.

B7: 1D05 (antibody)
chain 1: B2 VH with A40V
chain 2: not shown
With B7 the Kd (human PD-L1 His [1]) was 0.42 nM, the binding result (TIGIT) was “no binding” and the Kd (cyno PD-L1 FLAG) was 0.43 nM. It also gave a Kd (human PD-L1 His [5]) of 0.35 nM.

B8: 1D05 VH V to A and F to S (antibody, V domains shown)
VH: B2 VH with F71S
VL: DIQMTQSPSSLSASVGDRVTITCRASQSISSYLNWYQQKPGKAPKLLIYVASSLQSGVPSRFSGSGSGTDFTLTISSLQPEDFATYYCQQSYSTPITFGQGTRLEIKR
With B8 the Kd (human PD-L1 His [3]) was 0.23 nM.

B9: 1D05 D9-7 (antibody)
chain 1: B2 VH with A40V
chain 2: not shown
B9 gave an IC50 (human PD-L1 His [6]) of 0.7 nM and a Kd (human PD-L1 His [4]) of 0.2 nM.

B10: 1D05 IC46 (D1-9) (antibody)
chain 1: B2 VH with A40V
chain 2: not shown
Work on B10 yielded an IC50 (human PD-L1 His [6]) of 1.07 nM, an IC50 (human PD-L1 His [7]) of 1.75 nM and a Kd (human PD-L1 His [4]) of 0.195 nM.

B11: 1D05 IC45 (D5-9) (antibody)
chain 1: B2 VH with A40V
chain 2: not shown
B11 was tested, and the Kd (human PD-L1 His [4]) was 0.203 nM.

B12: Bispecific 2, PD-L1 arm (antibody)
chain 1: B2 VH with A40V
chain 2: not shown
In the case of B12, the Kd (human PD-L1 His [5]) is reported as 0.21 nM.
